# Reference: publication PMC9684356
# T1: HLTF HIRAN domain (UniProt Q14527 51-171)
# T1 sequence: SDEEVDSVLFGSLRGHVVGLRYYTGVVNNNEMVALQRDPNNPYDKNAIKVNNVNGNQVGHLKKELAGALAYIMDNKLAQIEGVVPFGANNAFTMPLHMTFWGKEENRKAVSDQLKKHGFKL
# Molecular target: T1, HLTF HIRAN domain
# Test: fluorescence polarization
row,Binder,Kd [nM]
1,TTTG (ssDNA) [5'-FAM-TTTG],100 ± 20
2,ATG (ssDNA) [5'-FAM-ATG],90 ± 10
3,TCC (ssDNA) [5'-FAM-TCC],210 ± 70
4,ATATA (ssDNA) [5'-FAM-ATATA],170 ± 60
5,CTG (ssDNA) [5'-FAM-CTG],60 ± 10
6,AAAAA (ssDNA) [5'-FAM-A5],160 ± 40
7,GTG (ssDNA) [5'-FAM-GTG],180 ± 10
8,GTTG (ssDNA) [5'-FAM-GTTG],220 ± 90
9,TTG (ssDNA) [5'-FAM-TTG],30 ± 10
10,TATAT (ssDNA) [5'-FAM-TATAT],250 ± 100

# Molecular target: T1, HLTF HIRAN domain
# Test: fluorescence polarization
# Remark: another data set of the same source
row,Binder,Kd [nM]
1,TTTTT (ssDNA) [5'-FAM-T5],140 ± 30

# Molecular target: T1, HLTF HIRAN domain
# Test: competition
row,Binder,IC50 [nM]
1,GTG (ssDNA),2200 ± 70
2,TTTTT (ssDNA) [T5],2400 ± 600
3,TCC (ssDNA),17100 ± 4800
4,ATTG (ssDNA),1800 ± 200
5,GGT (ssDNA),5400 ± 200
6,TCT (ssDNA),6800 ± 700
7,GTTG (ssDNA),1700 ± 100
8,TTC (ssDNA),13500 ± 600
9,GCC (ssDNA),31800 ± 8500
10,CTG (ssDNA),2500 ± 200
11,CAG (ssDNA),31700 ± 3900
12,GGG (ssDNA),20200 ± 5100
13,CTT (ssDNA),10000 ± 1500
14,CCT (ssDNA),6900 ± 70
15,TCG (ssDNA),2900 ± 300
16,TTTG (ssDNA),2000 ± 200
17,TTT (ssDNA),4300 ± 900
18,CTTG (ssDNA),1600 ± 200
19,TAT (ssDNA),34900 ± 9200
20,CCG (ssDNA),3600 ± 200
21,TTG (ssDNA),2800 ± 500
22,ATG (ssDNA),2900 ± 400
23,TGT (ssDNA),15500 ± 900
24,TTA (ssDNA),4300 ± 400
